According to paper PMC11706625, “Structural and bioinformatics analyses identify deoxydinucleotide-specific nucleases and their association with genomic islands in gram-positive bacteria” (Nucleic Acids Research, 2025):

B1: NrnC homolog from Okeania (Cyanobacteria) (enzyme)
chain: MSDFQVCDRDLTEAILSDYLQADSIAVDTETMGLLPWRDRLCLVQLCDAQGKVTAIRIEKGQQEAPNLKQLMEATGIVKIFHFARFDVAMLQHHLDIKVSPIFCTKIASKLARTYTGKHGLKDLVMELEKVELDKSAQSSDWGNAENLTEEQLSYAANDVRYLLSVKEKLIKMLKREERWELAQQCFECLPVFVGLDLLQYKDIFEH

Assays:
[1] = target: NrnC from Bartonella henselae (Bartonella henselae); assay: SEC-MALS; 1-2 mg/ml (~40-80 uM) protein injected on Superdex 200 Increase 10/300 GL in 25 mM HEPES-NaOH, 150 mM NaCl pH 7.5, room temperature
[2] = target: the molecule itself; assay: as above

Molecule	stoichiometry N [1]	stoichiometry N [2]
NrnC from Bartonella henselae (enzyme)	8	
B1		8
